Results as given in US20240425867A1, “NUCLEIC ACID-BASED ASSEMBLY AND USES THEREOF” (Rheinische Friedrich-Wilhelms-Universität Bonn, priority 2016, published 2024).
“And” between values parts separate entries of the source, which are not always exact repeats. Equal values may be shown once.

Key:
cMet = target: T1, cMet (Homo sapiens, UniProt P08581); experiment: Competitive filter-binding assay against γ-32P-labeled trCLN3; settings: competition with γ-32P-trCLN3, cMet ~50 nM, competitor 1 μM-25 pM, 37° C.
T1 construct: cMet-Fc, which represents the ectodomain of cMet fused to the Fc domain of human IgG1 was purchased from R&D Systems; purchased R&D Systems
T1 sequence (P08581 25-932 limits assumed): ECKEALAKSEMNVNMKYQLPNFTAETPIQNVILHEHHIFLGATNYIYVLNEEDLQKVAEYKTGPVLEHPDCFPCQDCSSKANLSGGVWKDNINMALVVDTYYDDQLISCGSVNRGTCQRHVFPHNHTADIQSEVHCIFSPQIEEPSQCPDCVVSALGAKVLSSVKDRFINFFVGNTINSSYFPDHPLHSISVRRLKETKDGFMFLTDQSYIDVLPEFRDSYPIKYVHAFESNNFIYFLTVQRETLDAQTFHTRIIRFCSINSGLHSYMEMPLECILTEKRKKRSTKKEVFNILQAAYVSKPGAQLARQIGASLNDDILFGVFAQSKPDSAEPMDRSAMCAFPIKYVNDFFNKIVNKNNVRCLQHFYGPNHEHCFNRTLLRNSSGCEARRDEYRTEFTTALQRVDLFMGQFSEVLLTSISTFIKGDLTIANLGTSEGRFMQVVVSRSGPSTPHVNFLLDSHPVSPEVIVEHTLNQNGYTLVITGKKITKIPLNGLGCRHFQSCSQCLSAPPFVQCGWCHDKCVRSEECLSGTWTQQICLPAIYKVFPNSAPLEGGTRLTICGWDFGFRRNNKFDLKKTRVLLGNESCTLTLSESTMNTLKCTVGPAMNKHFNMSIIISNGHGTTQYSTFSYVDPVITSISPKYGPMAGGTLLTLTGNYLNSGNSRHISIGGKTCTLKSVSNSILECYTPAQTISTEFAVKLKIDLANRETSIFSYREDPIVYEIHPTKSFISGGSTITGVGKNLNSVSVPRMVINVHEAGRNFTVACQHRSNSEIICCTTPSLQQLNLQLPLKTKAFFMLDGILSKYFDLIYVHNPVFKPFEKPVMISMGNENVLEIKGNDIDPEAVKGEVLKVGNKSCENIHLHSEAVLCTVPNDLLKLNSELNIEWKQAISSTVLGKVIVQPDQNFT
Procedure: To test the effect of lipid-modification on trCLN3 binding properties, we determined IC50 values for each trCLN3 derivative by a competitive filter retention assay in which varying concentrations of unlabeled 5′-(1-dodecynyl)-functionalized trCLN3 aptamers competed with constant amounts of γ-^32P-labeled trCLN3 in binding to cMet. Two control experiments were also performed using unlabeled trCLN3 and its two point mutant variant trCLN3.mut as competitors.
First, the trCLN3 motif was 5′-end-labeled with γ-^32P ATP using T4 polynucleotide kinase. An aliquot of 20 μL solution containing 50 pmol trCLN3. 6.7 pmol γ-^32P ATP and 20 U T4 polynucleotide kinase in 1× polynucleotide kinase buffer (New England Biolabs) was incubated at 37° C. for 45 min. followed by removal of unreacted γ-^32P ATP using an Illustra G-25 microspin column (GE Healthcare. München, Germany). The purity of the radiolabeled aptamer was confirmed using a 10% PAGE-gel.
0.25 mg/ml BSA. 2 mM MgCl2 in 1×PBS, pH 7.4. […] Residual radioactivity due to cMet bound labeled aptamers was quantified using Fujifilm Fla-3000 PhosphorImager and AIDA software. The curves were fitted with GraphPadPrism 3.02 plotting non-linear regression curve and the IC50 values have been calculated assuming a competition for single binding site.

[1] = TEM size of trCLN3-L4 nanoconstructs; format: physicochemical; settings: negative stain electron microscopy
Procedure: The size and structure of the trCLN3-L4 nanoconstructs were analyzed by negative stain electron microscopy. Samples were prepared using negative staining. In brief, carbon coated grids (Quantifoil Micro Tools GmbH, Jena, Germany, 200 mesh) were glow discharged to render the surface hydrophilic prior to applying samples. 10 μL of an aqueous solution of trCLN3-L4 were applied to the grid. Afterwards excess solution was carefully blotted off using filter paper followed by 3 times washing with ddH2O. In the final step, grids were stained with negative staining reagent by placing them (plastic side down) on a 10 μL drop of freshly prepared 2% […] uranyl formiate aqueous staining solution. TEM micrographs were recorded using a JEOL JEM 2200 FS electron microscope (JEOL, Japan) operated at 200 kV. The size of the micelles measured on the TEM images could typically be observed in a range between 20 and 25 nm.

[2] = Critical micelle concentration via FRET (6-Fam/Atto647N-labeled motif 3); format: physicochemical; settings: room temperature
Procedure: The critical micelle concentration (CMC) value of the trCLN3-L4 aggregates was determined by intermolecular Förster resonance energy transfer (FRET) experiments using a FRET pair of 6-Fam and Atto647N both attached to the 5′-end of the trCLN3-L4 motif 3. The FRET labels were attached at the 5′-end in immediate proximity to the lipid-modifications to ensure that intermolecular FRET effects report the formation of micellar nanoconstructs at a concentration above the critical micelle concentration.
In the FRET experiment, a series of nanoconstructs was self-assembled by mixing 6-Fam- and Atto647N-labeled motif 3 in 1:1 ratios in a concentration range between 0.035-15 μM (Table 2). […] The mixtures were transferred into a 384-well plate and the FRET effect was monitored at room temperature by using an excitation wave length of λex=480 nm and an emission wavelength of λem=669 nm using an EnSpire® Multimode Plate Reader (PerkinElmer).
The intensity signals were collected for both FRET channels at λem=669 nm for the acceptor channel and that of donor channel at λem=520 nm. […] The CMC value was determined from the intersection of the lower horizontal asymptote of the sigmoidal curve with the tangent at the inflection point corresponding to the minimum trCLN3-L4 concentration required for formation of stable micelles in aqueous medium. […]

[3] = Atomic force microscopy (AFM) size of nanoconstructs; format: physicochemical; settings: Gaussian fit of at least 50 nanoconstructs
Procedure: All AFM images of the trCLN3-L4 and HyApNc aggregates were taken by using a Nanowizard III AFM (JPK instruments, Berlin) in tapping mode. ACTA probes with silicon tips were used for imaging in dry mode in air. A volume of 3 μL (5 mM) of a solution of magnesium acetate (MgAc2) in water was deposited on a freshly cleaved mica surface layer and allowed to incubate for 3 minutes and afterwards the surface was rinsed with 2×10 μL of milli-Q water and dried under air pressure. For imaging a volume of 3 μL of the trCLN3-L4/HyApNc solutions in ultra pure water were spotted on the pre-treated mica surface and allowed to incubate for 1 min. After 1 min incubation on the mica surface, the excess sample solution was gently shaken off and the mica surface was blown dry with air pressure and mounted to the AFM microscope for immediate imaging. […]
In a first step. we synthesized the lipid-modified phosphoramidite 1 with a C12-lipid chain incorporated at the 5-position of the uridine base (FIGS. 2A-B). […] We evaluated the CMC of the trCLN3-L4nanoconstructs using Forster resonance energy transfer (FRET; Example 3; FIGS. 6A-C; Table 2) and fluorescence studies with pyrene-loaded trCLN3-L4 nanoconstructs (FIGS. 7A-B; Table 3). […] The trCLN3-L4 3 nanoconstructs have an average diameter of 21.2±1.5 nm (FIG. 8C, upper panel), consistent with the size of 25 nm measured by TEM.

trCLN3-L4: trCLN3 aptamer with four C12-lipid-modified dU residues at the 5′-end; self-assembles into micellar nanoconstructs (TGGATGGTAGCTCGGTCGGGGTGGGTGGGTTGGCAAGTCT; four 5' C12-lipid-modified dU residues, chemistry not fully specified)
IC50 (cMet): 43 nM
size measured by TEM [1]: 25 nm
critical micelle concentration (CMC) ([2]; FRET, aqueous medium): 300 nM and ~0.005 mg/ml
CMC values ([2]; both methods (FRET and pyrene fluorescence)): 300 to 350 nM
average diameter [3]: 21.2±1.5 nm
